# Laboratory results reported in the DeepSol protein solubility set.
# Test: soluble on expression in E. coli; label from the status in PepcDB or PDB records
row,Sequence,soluble on expression in E. coli
1,ANATKNTPSEDQQLANIIETHEAFYLKSSPFNQPEVIGNNAKLPDLSADFLLAQYQQGLAIYQQLIALDNEKLTQENQINFSVLTYSLKNQLDSYINKEHYMPLTAESGFHVWIANISKQVDFKTFTDYQDYLVRLSLLPAYFSQQTYWMKKGLKSGISQPKIVLKGFEQSIAAYIKEDVTESSYYQPFNKMSAFITTSQKKDLQQQAKQVLSTKVMPAYTAYYDFMVNVYQPNARDNIAAISLPNGKEYYQNRLVHYTTLPMTATEVHQQGVGEVKRIRVEMNAIIEQVNFDGSFSEFVEFLRTDPQFYASTPTELLKEASFIAKKMDAKLPRLFKTLPRTPYGVMAVPANIAPKYTTGRYAGSSRDDQPGNYWVNTYRLDRRPLYVLTALTLHEAVPGHHLQISLAKEMKDVAKFRNRSYISAFGEGWGLYSEYLGIEAGMYEDPYHNFGRLTYEMWRACRLVVDTGMHTQGWSREQAMDFLASNTALSLHNVKTEIDRYISWPGQALSYKIGELTIKRLRKEAEQTLGEDFDLREFHDQILKHGSMPLSMLDKIITQYINDKDNSVTK,not soluble
2,MEKKVGTDRVKRGMAQMQKGGVIMDVVNAEQAKIAEEAGAVAVMALERVPSDIRAAGGVARMADPRIVEEVMNAVSIPVMAKARIGHITEARVLEAMGVDYIDESEVLTPADDEFHLLKSDFTVPFVCGCRDIGEALRRIGEGAAMLRTKGEPGTGNIVEAVRHMRQVNGQIRQIASMTDDELMVAAKNFGAPYELVKEIKTLGKLPVVNFAAGGVATPADAALMMELGADGVFVGSGIFKSDNPAKFASAIVQATTYYTDYE,not soluble
3,STDNTTSSDLIKNVETARSTIDGLIESLGWIELNYRCERQCNWDEVCYTPSWGPSPMGMTEPGSHNEGFGTHFDESRQRLVINSKLQCININDLMVNRNH,soluble
4,MNTKLPLDLFNQAKRSASQDQPALFSWVTELDELVSPVKLFKKAGTAFKGERFFWQNPEMTLTMTGFGVTKQFLAEKKKDAFLGLQEKIEKRLRTSVTNATVDATGPVYFGGFAFDPERDTEKEWQSFKDGLFYLPLFMLTNKDGKSYLTVNLSIYSDDTESKLEAVFNQWQKIIHQEVNEAEMALLTDFKEIGKDHFLETASEIIDMINHSEDVKKVVLARRMGLRFQRQVDSAIILENMLATQENSYFFLIEKGTGVFFGATPERLLAVNGDEIHSSCVAGSTERGATEEADEALGNALLKDAKNLREHSYVVQMMEETLKPFTTGLSLSSQPVLLKNRDIQHLYMNITAKKKPDVSMLEMVKALHPTPALGGLPQKMGLAIIRMKEEMDRGFYGAPIGWVDLKGSGEFAVAIRSGLIVDSQGLIYAGCGIVGDSVPKEELQETAVKFQPMLRVLGGIKK,not soluble
5,SEASFVQTTMALGLPSKKASSRNVIVERRNLITVCRFSVKTLLEKYTAEPIDDSSEEFVNFAAILEQILSHRFKACAPAGPASWFSSDGQRGFWDYIRLACSKVPNNCVSSIENMENISTARAKGRAWIRVALMEKRMSEYITTALRDNRTTRRFYDSGAIMLREEATVLTGMLIGLSAIDFSFCLKGEVLDGKTPVVIDYTPYLKFTQSYDYLTDEEERHSAESSTSEDNSPEHPYLPLVTDEDSWYNKWHKMEQKFRIVYAQKGYLEELVRLRESQLKDLEAENRRLQLQLEEAAAQNQREKRELEGVILELQEQLPDPPPPPRTGLIPGDHAPLAQGSKELTTSLVNQWPSLSTLHRPEGASNSKLYRRHSFMSTEPLSAEASLSSDSQRLGEAKRDEEPWGPIGSSEPN,not soluble
6,PFKESQARGLLQDNMANSYNGGDFEDGLLNLSKEVFPTDKYLYQDGQFLDKKTINAYLNPKYTKREIDKMSEKDKKDKKANENLGLNPSHEGETNPEKIAEKSPAYLSNILEQDFYGGGDTKGKNIKGMTIGLAMNSVYYYKKEKDGPTFSKKLDDSEVKKQGKQMASEILSRLRENDDLKDIPIHFAIYKQSSEDSITPGEFITQATAEKSQTKLNEWHNINEKSALLPSSTAADYDENLNNNFKQFNDNLQSYFSNFTQAVGKVKFVDKKPQRLVVDLPIDYYGQAETIGITQYVTEQANKYFDKIDNYEIRIKDGNQPRALISKTKDDKEPQV,not soluble
7,MAFDGLFTRAITHEIANSLYTGRISKIYQPSKYEILLHIRANGKNQKLILSAHPTYARLHLTNQNYDSPALPPMFCMLLRKHLEGGFIEKIEQIDLERIIQITVRSRNEIGDESLKTLVIEIMGRHSNIILVDTKTNNILDSLKHVSLAVNRHRTVYAGAEYIAPPVQHKINPLQIETNDEFIRPLDFLSGNMDKQLVGTFTGISPLFAKEVVKKAGMVNEKALADAFFSIQKPLLTHTYSPTMTTSNGKEFFYLFPLAHLAGENKTFSSVSELLDRFFFGKAERDRVKQQAHDLERFMQNEKNKNEKKLIKLEKTLQDAGKADKYQLFGELLTANMYALKKGDKDIEVVNYYDENGGTVKIALDPLKTPSENAQRYFQKYQKAKNSIVVVEEQIEKTKEEILYFDSLLQQMEAASSKDIEEIREELAEEGYMRNRKTKNAKKKPTKPVLDKYVASDGTEIFVGKNNKQNDYLTTKFARRDEIWLHTKDIPGSHVVIRSLEPAEETLLEAAKIAAYYSKAKESSSVPVDFTKIRHVKKPSGAKLGFVTYDNQQTVYVTPDADTVMKLKA,not soluble
8,MQIRFAGIGGQGVVLAGVILGEAAAIEGLRVLQTQDYSSASRGGHSIADVIISNEEIYDVMVTEADVLVALHQLGYETAKSKLKKDGILIIDTDLVKPDREYIGAPFTRIAEETTGLALTVNMVALGYLIGKTQIVKPESVEEAIRRRVPKGTEEINIKAFRKGLEVSMNE,not soluble
9,MLRNLKKTLVLDSSVFIQGIDIEGYTTPSVVEEIKDRESKIFLESLISAGKVKIAEPSKESIDRIIQVAKETGEVNELSKADIEVLALAYELKGEIFSDDYNVQNIASLLGLRFRTLKRGIKKVIKWRYVCIGCGRKFSTLPPGGVCPDCGSKVKLIPRKRLEHHHHHH,not soluble
10,MGSDKIHHHHHHMTIDDLKSFMLVCRLHSFSTAAVELSMTQSALSKRLQAIQQEVGSEFISTENRRQILITESGKVFYRYAQRIVSSYDELEQELKAYRELKKGNLQIGRVPVMSQYGLTKIINIFERSYPQIDIHLNELEGNDLLMVLKAGEIDAGIIRDIQTKTIDNNHFNSYTLDRDELKVVLPANDSLNNKKRISIEELANYQVISLESGSGIYEKMVEIYNNAGIPLNVGFKTTHIETIMGMIKNSDQITFLFKKSAMPFMNKQLVMLSLDQPIYSNLELICPRENQHKPALTKFIEYMKKYTSEPVESYP,not soluble
11,MDILVLRVDVPKEGFARKLGAHETVFAADDGAVGKVQQLVEVLLRHERDFDEADGCRLKNIAVVLQGILRNNAALFEAVDDLRPRQQQCHRAACLSPHFQPLCPNIAPIAEKQPFGGVFFGQHQPLSQGFSIETDGFAVITFAYQPAAFFAETHKPKIFLNTLLRRRHQMQPFIAFLRAQIFPIQPKRLVSADNVQHIFGQVAGKSFDDDIGNRRGINICRIGMPSADMNILMNAGNIGQIRAKRTQGGHIVRPQMHLPTEFAVQNTGEPPRNADVAEIVDDLAKNPTDKRRSIHRNNGNGLKRAKIVEQIHNQQNNRNKQQHSLTFQIKLLFQMMLDGVEKDEFKQKRRFAGKDDAVDQMLEFVFGRIGGENGKRRQRDEADGKPADKQVSGHCKAFKKAKRHYRPKRTPCLTDAPEMPSEALPQENAAPPNL,not soluble
12,MGSDKIHHHHHHAVDAKLLEMLRANGSINQAQYNELQGDLAKETKEKADQKAQSERMSSFEQKVAWAAKTQIKGDVRLRYEDVNVDDPNSSSGNQDRQRVRARVGFYSEINPQVDAGVRIATGSSADRRSTNQSFDNYFDKKSLWVDLAYLDWHPTAVPNLHLIGGKMQQPWVSMGDIIWDSDINPEGVAATYKADLGGAEVFASAGQYTLKDNVDGDGVQYKHDAQVYHGQLGAKFAPADVLKLTVGASIYGYDNDKEAAILQSFGNTTNEFNLVEGFGQIDFTGLAIPLSAYGQYVKNTDSTDGEDQAWLAGLKTKMGAWSLDYNYRDVQRNAVVSLFTDSDFGNGYTGSRGHKFKVGYEIDKNFSLGAAYLMAKTDLSQLPNSNADVDTLQVDLEAKF,not soluble
13,MGHHHHHHHHHHSSGHIEGRHIGSGVEAPEQLEEHGISVYATIPMSEWLDKRTRLRKKNLFSNQQRHRTKNIPFLAVDNPADSAVEAVRALRTSLHFAMMETENNILMITGATPDSGKTFVSSTLAAVIAQSDQKVLFIDADLRRGYSHNLFTVSNEHGLSEYLAGKDELNKVIQHFGKGGFDVITRGQVPPNPSELLMRDRMRQLLEWANDHYDLVIVDTPPMLAVSDAAVVGRSVGTSLLVARFGLNTAKEVSLSMQRLEQAGVNIKGAILNGVIKRASTAYSYGYNYYGYSYSEKE,soluble
14,MGSDKIHHHHHHMKMVTKLSIVLGLIATLVLSGCQKHDTHEEMPHYAATTPFREDTSILEPYVCQIRAIRHIEVRSLEKGYLTHIFIDEGQWVKKGQPMFKIMPNVYQAELLTAEAEAQNVNIEYLNTKALADKNIVSANELALAKAKLDKANAQVNLAKTHLGFTDIRAPFDGITDHLAVRIGSLLDEDDLLTELSDIAHLWVYFNVPEAKYLDFIRREKGKTNEKVQLRMANGEIYEHTGVIETIVGDFYNTSGNIQFRALFENPDRVLRHGQTGTILMTVPYPNAMLIPQKATFEIMDKIYLYVVNKEEKVEQRLIQIEAELPHMFIVKSGVNDGERILIEGMRKVSPGDKVMIDLKPPQEVRSELMKLYTE,not soluble
15,MAHHHHHHMYYIYFENVKDEKEKKECEEFIYQIYMMENIKKDAILKLKNEKNENLYLLYLYYKYYYMNDKENVLNEIKQLNTSSCNANILKSRIFFDNDLLDECFDLLENGTIEIKAAKIFFLLNINRQDIVNEIIKDFLHMNEEIPIIKIVLAIYYLFNDNNKESFLIFDDLESLYGSMINDHSNIILNGKAVASILNYEFNDAKEFLKNQINNGDILYNLITCSLYLYELDEANEYLTKLYDNYSSHDSLKVLKKIDDEVDNFVSEF,not soluble
16,THILTLTSGFHLWSHTENSGKKSKIIAVHGGPGETHESFETLPLGVPNAEITSYDQLGSWYSDQPDFSDPKLAKKYLRIEYFVNELEEVRRQLEYDKFILLGYSWGAMIALEYALKYPGNLDKLVIVGMSDRESDFTDRMKDEVAKVLSKDEAKYVFTEAKKGELDDPLFNQFMEKFYNDYYSRFSKSQSKHAIDISNYQVANYMMGTNPFHTEGMMSGWNVSDKLYRIKTPTLILVGDQDMISPKKARVMADKLPNGKLEIIPDATHVSLRDNPEYFFQQLNQFLTN,not soluble
17,MTSGKIHNPLNRQHSELRSKNVSLSNGDPFTIALFGVDSNAQRKSENDGERSDTIMLLSINPKKQTTEIVSVPRDTQAEIVGKGTTEKINHAYAYGGPTMAVKSLEKLMNVPIDHYATVDMDGLHDMIDALGGVNVTSNDTFTTKGTNFVKGQSTHVDGDTAMAFIRSRKEEGAGGDFGRQERQQLILQAMANKMTSTSALTHFPSLINQIQKNVKTDLTLNDMNDIRKNYKNANTTVNRHQLEGQGGIQDDGLWYFIPNDDSKQSATEILNNNLQNLEHHHHHH,soluble
18,MELKPTAPPIFTGRPFVVAWDVPTQDCGPRLKVPLDLNAFDVQASPNEGFVNQNITIFYRDRLGLYPRFDSAGRSVHGGVPQNVSLWAHRKMLQKRVEHYIRTQESAGLAVIDWEDWRPVWVRNWQDKDVYRRLSRQLVASRHPDWPPDRIVKQAQYEFEFAAQQFMLETLRYVKAVRPRHLWGFYLFPDCYNHDYVQNWESYTGRCPDVEVARNDQLAWLWAESTALFPSVYLDETLASSRHGRNFVSFRVQEALRVARTHHANHALPVYVFTRPTYSRRLTGLSEMDLISTIGESAALGAAGVILWGDAGYTTSTETCQYLKDYLTRLLVPYVVNVSWATQYCSRAQCHGHGRCVRRNPSASTFLHLSTNSFRLVPGHAPGEPQLRPVGELSWADIDHLQTHFRCQCYLGWSGEQCQWDHRQAAGGASEAWAGSHLTSLLALAALAFTWTL,not soluble
